Data published in a protein production outcome set (Wang et al. 2014).

Experiment: label from the status in PepcDB records

| Sequence | protein production |
| --- | --- |
| MRQTKLTKAARGRECQVRIPGVCNGNPETTVLAHYRLAGTCGVGKKPHDMQGAWCCSACHDACDGRSRAVGRETARQYHAEGVMRTQALLLNEGVLVE | not failed |
| MRQVFSTDQEYKADKSPENLFPLTEVTRKMEYEERFDQAVRVTGVGLFVNLGLTIFKLLAGILGNSTAMVADAVHSLSDFLTDVVVIFGFKIAKKPVDESHNYGHGKIETLSASLVGLMLLLVAGQILYYGVQKTLMFIEAGTLEQPAIIALYAALASVISKEIMYQYTILKARKINSMALTANAWHHRSDAFSSFCTMIGIGAAVFLGGKWVVLDPLMAVFLSFIILKVSLKIFHSSINELVEASLDEKTESEIRQIIQKTEGVKALSNLKTRRIGNNIAVDIRIKVDNALDIGEANRISIHVEHNLKKAFGPYTYVLVKAEPYEREPWGNPEDEKAREHPVNPEKNKVCLRNHSN | failed |
| MRRCPLCHSTQTHLLLQDKKRCFYICQTCWLTFADANSHLPPAAEKQRYGRSRIASKQRHLSQFILPLLTQIQQQQNGSLTGLNFGRVLDQTSLETIESAGHTFKQYDPFFAPDHETLKQEYDFICCYRVFEHFQYPIKEWSLLTRLLKPGGWLAISTPLLIDLEGFAKWHYKNNLTHVSFYQRQTFEYLASNSDFELLFAAKDLVLMQKTSLEHHHHHH | not failed |
| MRRFLVLLWLLSLALAAPRLVVEPEDGVKPLLDLIASAREEILVKMYLWTPSRMDVVEALGEAARRGVRVRVLLEREPSGGRVDLEVFQALKARGVEVRLTTPFRFVFVHEKSLVVDRKRAWVGTMNLTGSSFAANREYALILDDPAQVAEIAKVFEADWEGERLDLSQALLVWAPSRVLGGVKEGNARETLLALIRGAQRELFLEHQAMADPEVEAALKEALGRGVRVRLLGSPKEPGDTYFLAGALRLKEAGALVRFLPDPYVHAKVLVRDGEEALLGSLNLSANSIQANRELAVRFTAREAPEAFRRLLFVMEGDWEKALPENPFALPPVEGVIPWQEAPRYFGRVATVEGVIQAVEDRGTVAFLKFGPGESDLRLVVFPRSYGLFAQPFPQSYLGKKVRARGRIVLYAGYYEIVLEGPENLEVLDGGP | failed |
| MRRFVIGQAKNLIDQSRRRQLHHHKNLSFVSLIPPFSAPSDSSSRHLSSSSSSDMSASDSSSSLPVTLDTINPKVIKCEYAVRGEIVNIAQKLQEDLKTNKDAYPFDEIIYCNIGNPQSLGQQPITFFREVLALCSYTALLDESATHGLFSSDSIERAWKILDQIPGRATGAYSHSQGIKGLRDAIADGIEARDGFPADPNDIFMTDGASPGVHMMMQLLITSEKDGILCPIPQYPLYSASIALHGGTLVPYYLDEASGWGLEISELKKQLEDARSKGITVRALAVINPGNPTGQVLSEENQRDVVKFCKQEGLVLLADEVYQENVYVPDKKFHSFKKVARSMGYGEKDLALVSFQSVSKGYYGECGKRGGYMEVTGFTSDVREQIYKMASVNLCSNISGQILASLIMSPPKPGDDSYESYIAEKDGILSSLARRAKTLEEALNKLEGVTCNRAEGAMYLFPCLHLPQKAIAAAEAEKTAPDNFYCKRLLKATGIVVVPGSGFRQVPGTWHFRCTILPQEDKIPAIVDRLTAFHQSFMDEFRD | failed |
| MRRKLRYLNYRILIPYLILVVVGIILVYSASSDILLVNGFKPDVYGIRQAIYAAVAFFGFGIPFFALRLKVIKNPKFVAGFLIICILMLLWLVFLRFAHGSAAAVNGAVGWINLGFINLQPLEVTKLALVIYLAYVLDRRDGKLVRGKIKDNLSHPAMLAGFLMCLVIVEPDFGGTAILFMITLVMFSVSGVPVRLALTWLLGIILLVGAVFILVVLWNPKFLQDSYQFQRLMSFLHPFQLERKGGAQLVNSYYAIHNGGLFGVGLGNSMQKRGYLPEPYTDFILSITAEEIGVIFTIVLVGLLFYLMWQIMEVGINAVSQFDALICFGVTTIIFTEALFNIGAVLGLLPITGVTLPFISYGGSSMIVLTAAIGLVLNVSANEKMLKEKDETIA | failed |
| MRRLALLFPVLALLVGVWAFPLLGPLFRHGAVPNPFALKEPFTLLVYGSSPEYVEYHKRAPERFRGLADTILLVRLDPGANRVVVLSVPRDVWVLLPGHGWHKVNAASPLGGPELMKEAVARITGVRPDRYVVVSLEALRRGVDALGGVRVCVEKPMRYQDQAAGLVIDLEPGCQVLSGAQAEGYLRFRKDALGDIGRIQRQQAFFHALKDQLFSLPGLLRLPRAVAAVEPYVATDLTRGEKGALLGFLLRRPAFVSLLLPGRFAGGWAVDEAAWARLRAVYFEDREAWGEALAGKRAVVLFGPGQGALAQEAAERLKALGLSVSLRELALAPERTEVLENGPGRLAQALGEALGVPYRVSGEAALGADLTLRLGREGLPR | failed |
| MRRLLTAVLISTLGAASLVRADGPAPFSKVFEDISADQPGCAAGVMRGGKVIWSAGYGAADLTTGAAIQADTLFNLASVSKQFTGFAILQLQAQGRLSLEDPVRRFLPELPAYAQGIRIRHLLHHTSGLQDYMLLAELAGIPLSQRFTQQQALDLLVRQNSLMFPPGSEFSYSNSGYVLLSSIVERASGLSLKHYSRANIFLPLGMDHSSIVDQYPVQLPNLARGYEPGGQGKAQVAVDARWEQTGDGQVHSNVADLMRWLRNLSTGRVGGKALVENMRQTEPLNDGDPGYYGMGLANRSYRGLQELSHSGGWAGFNTDVAWYPKLDVATVVLCNSDDGRASERGRQLLDTLLGSPAPSGEADIPPPPPSIRALPKASLKTLVAGTYLDDGGHQLQLRRSGKGWSLETFPDVLPLTRQSDEVLVADNDGTPIYLAATSGGRIALNNPASTYALAPPWKPDDIRPYVGLYTLETSPGQLKVHARQGKLYVRIGLYTYPMQPLTAERFSAGELGVLSFAEQGAVLTSSVARNLRFGKVFAP | failed |
| MRRQAEAYKAQLAAMVESSDDAIIVKDLNAIITSWNAGAERIFGYQASEITGSSILALIPPERHEEEKGIMSLVKSGNRVDHFETMWWGKGKKPIDVSVTTSAVKDSDGNIVGISQIARDLEHHHHHH | failed |
| MRRQPKTRQESARMSIEAPETVVVSTWKVACDGGEGALGHPRVWLSIPHETGFVECGYCDRRYIHESFAAAKLEHHHHHH | not failed |
| MRRRVAAALVAAVLAAPALAQQPEPFEPEGYRTDNYRAPVPATLAGARVLTTAEAEAIWRDKSGAFIDVMPRAPKPKNLPEGTVWRDAPRRNIPGSLWLPDTGYGNLPPAMDDYLQRGLAQASRGDKAALLVIYCLADCWMSWNAARRALAYGYSNIAWYPDGSDGWERAALPTDEGQPEPRPDQ | failed |
| MRRSFLKTIGLGVIALFLGLLNPLSAASYPPIKNTKVGLALSSHPLASEIGQKVLEEGGNAIDAAVAIGFALAVVHPAAGNIGGGGFAVIHLANGENVALDFREKAPLKATKNMFLDKQGNVVPKLSEDGYLAAGVPGTVAGMEAMLKKYGTKKLSQLIDPAIKLAENGYAISQRQAETLKEARERFLKYSSSKKYFFKKGHLDYQEGDLFVQKDLAKTLNQIKTLGAKGFYQGQVAELIEKDMKKNGGIITKEDLASYNVKWRKPVVGSYRGYKIISMSPPSSGGTHLIQILNVMENADLSALGYGASKNIHIAAEAMRQAYADRSVYMGDADFVSVPVDKLINKAYAKKIFDTIQPDTVTPSSQIKPGMGQLHEGSNTTHYSVADRWGNAVSVTYTINASYGSAASIDGAGFLLNNEMDDFSIKPGNPNLYGLVGGDANAIEANKRPLSSMSPTIVLKNNKVFLVVGSPGGSRIITTVLQVISNVIDYNMNISEAVSAPRFHMQWLPDELRIEKFGMPADVKDNLTKMGYQIVTKPVMGDVNAIQVLPKTKGSVFYGSTDPRKEF | failed |
| MRRSFYHYLMTLKGPAKDSETDFANEAAKDIQFPKQTEDYHELSSYLEMNADYLSNMDIFDELWEKYLENNKLEHHHHHH | not failed |
